Experimental data: patent US20250210128A1, “COMPUTER-IMPLEMENTED DESIGN OF PEPTIDE:RECEPTOR SIGNALING COMPLEXES FOR ENHANCED CHEMOTAXIS” (Ecole Polytechnique Federale de Lausanne (EPFL), priority 2022, published 2025)
Residue numbers refer to the chain shown, from its start. Numbers in names are those of the source. Values belong to the molecule of their own block, whether it stands above or below them.

Legend:
[1] = target: T1, CXCR4 (Homo sapiens, UniProt P61073, L41A); assay: Calcium mobilization assay in transfected HEK 293T cells; assay type: cell-based; settings: peptide-induced, point mutation, FIG. 15A
T1 construct: WT CXCR4 with an N-terminal 3×HA-tag, Gβ3-WT, and GNA15 sub-cloned into pcDNA3.1+ were obtained from the cDNA Resource Center; host or cells: HEK 293T
Protocol: (§1) 40,000 HEK 293T cells were transiently transfected with 50 ng HA3-CXCR4, 10 ng GNA15 in pcDNA3.1+. To equalize receptor surface expression, 75 ng of HA3-CXCR4 for the Cdes2 Design variant. Cells were first seeded in 100 uL DMEM (Gibco, ref: 41965-039) 10% FBS in a black-walled, clear-bottom 96-well plate coated with poly-lysine (Sigma, P6407-5MG). Directly after cell loading, 50 uL of the mixture containing 0.5 μL Lipofectamine 2000 (Invitrogen, ref: 11668-019) and the DNA was added on top of the cells. The cells were then left to incubate at 37° C., 5% CO2, 95% relative humidity for 20 h, after which, media was refreshed with 150 uL DMEM+10% FBS. Cells were assayed 48 h post-transfection. Cells were washed with 200 μL FLIPR6 buffer (HBSS+20 mM HEPES, pH 7.4), then incubated at 37° C., 5% CO2, 95% relative humidity for 2 h in 200 μL dye buffer according to manufacturer's protocol. Just before the assay, 5× concentrated peptide solutions were prepared in FLIPR6 buffer in a V-bottom 96-well plate. After incubation, peptide solutions were added at a rate of 16 μL/s after 30 s and fluorescence changes were monitored for 90 s after addition using microplate reader FlexStation3 (Molecular Devices). The maximum response after correction by the mock-transfected condition was averaged from three replicates. […]

[2] = tested on: CXCR4; assay: Gαi dissociation BRET (Gi activation) in transfected HEK 293T cells; assay type: cell-based, human; settings: for enhanced potency in G-coupling (Gi): designed receptor vs WT CXCR4 scaffold, against WT CXCL12 peptide
Protocol: (§2) 40,000 HEK 293T cells were transiently transfected with HA3-CXCR4, Gαi1-91-Rluc8, Gβ3-WT and Gγ9-GFP2 in pcDNA3.1+ at a ratio of 10:1:10:5 respectively. Cells were first seeded in 100 μL DMEM 10% FBS in a poly-lysine coated, white-walled, white-bottom 96-well plate. Directly after cell loading, 50 μL of the mixture containing Lipofectamine 2000 and the DNA was added on top of the cells. The cells were then left to incubate at 37° C., 5% CO2, 95% relative humidity for 20 h, after which, 150 μL media was refreshed. Cells were assayed 48 h post-transfection. Cells were washed with 150 μL PBS, then 40 μL BRET buffer (HBSS, 0.2% Glucose) was added to each well. Coelenterazine 400a was first added at a final concentration of 2.5 μM and BRET ratios were measured once using Mithras^2 LB 943 plate reader. After the first measurement, […] agonist solution was added to each well and BRET ratios were measured for another 30 min using Mithras^2 LB 943 plate reader. Mock-transfected controls were subtracted from the data. Maximum values were then plotted against selected concentrations and fitted to a sigmoidal curve. (n=3, SD plotted)

[3] = target: T2, CXCR4 (Homo sapiens, UniProt P61073, N37A/S285M/Y45F); assay: as above; assay type: cell-based; settings: HEK cells; cell based assays reporting Gi activation and Ca2+ mobilization
T2 construct: WT CXCR4 with an N-terminal 3×HA-tag, Gβ3-WT, and GNA15 sub-cloned into pcDNA3.1+ were obtained from the cDNA Resource Center; host or cells: HEK 293T
T2 sequence (P61073 whole entry N37A/Y45F/S285M): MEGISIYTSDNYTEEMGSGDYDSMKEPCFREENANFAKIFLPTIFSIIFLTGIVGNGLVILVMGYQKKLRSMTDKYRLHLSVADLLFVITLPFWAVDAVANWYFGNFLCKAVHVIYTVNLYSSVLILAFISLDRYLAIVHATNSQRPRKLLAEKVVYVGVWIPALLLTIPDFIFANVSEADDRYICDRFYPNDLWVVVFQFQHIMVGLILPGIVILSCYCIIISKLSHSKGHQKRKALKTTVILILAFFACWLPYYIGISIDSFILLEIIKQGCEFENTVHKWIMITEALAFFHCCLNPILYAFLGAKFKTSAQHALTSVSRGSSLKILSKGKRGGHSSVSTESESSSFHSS
Protocol: as §2

[4] = tested on: CXCR4; assay: Calcium mobilization assay in transfected HEK 293T cells; assay type: cell-based, human; settings: designed receptor vs WT CXCR4, CXCL12-derived peptide, HEK cells
Protocol: as §1

calcium release [1]: Enhanced
B1: L41A CXCR4: CXCR4 point mutant L41A (protein)
chain: MEGISIYTSDNYTEEMGSGDYDSMKEPCFREENANFNKIFAPTIYSIIFLTGIVGNGLVILVMGYQKKLRSMTDKYRLHLSVADLLFVITLPFWAVDAVANWYFGNFLCKAVHVIYTVNLYSSVLILAFISLDRYLAIVHATNSQRPRKLLAEKVVYVGVWIPALLLTIPDFIFANVSEADDRYICDRFYPNDLWVVVFQFQHIMVGLILPGIVILSCYCIIISKLSHSKGHQKRKALKTTVILILAFFACWLPYYIGISIDSFILLEIIKQGCEFENTVHKWISITEALAFFHCCLNPILYAFLGAKFKTSAQHALTSVSRGSSLKILSKGKRGGHSSVSTESESSSFHSS

B2: CLdes: CXCR4 variant combining the H113N mutation with the Cdes2 design (protein)
chain: B1 chain with N37A, A41L, Y45F, H113N, S178F, D181Q, I185V, S285M
modifications: CLdes
notes: CXCR4 variant combining the H113N mutation with the Cdes2 design
enhanced potency in G-coupling (Gi) [2]: more than 9 fold over WT

sensitivity to CXCL12 [3]: enhanced sensitivity
B3: Cdes1: first-generation combinatorial design CXCR4 receptor variant with binding hotspot motif at TM1/7 interface (protein)
chain: B1 chain with N37A, A41L, Y45F, S285M
modifications: Cdes1

B4: Ldes: CXCR4 variant assembled from activating point mutations on TM1, TM3 and ECL2 of the point mutant library (protein)
chain: B1 chain with A41I, H113N, S178A
modifications: Ldes
enhanced potency in G-coupling (Gi) [2]: ~11 fold over WT | higher Gi efficacy ([2]; designed receptor vs starting CXCR4 WT scaffold, WT CXCL12 peptide): 120%

B5: Cdes2: second-generation combinatorial design CXCR4 variant combining the 2 designed binding hotspot motifs (protein)
chain: B1 chain with N37A, A41L, Y45F, S178F, D181Q, I185V, S285M
modifications: Cdes2
enhanced potency in calcium mobilization [4]: 3.1 fold over WT | enhanced potency in G-coupling (Gi) [2]: 3.2 fold over WT
